From the supplement of paper PMC11246515
± gives the standard deviation of the averaged measurements.

Experiment: total protein half-life in vivo (active degradation + dilution); higher = more stable protein
[1] = E. coli NCM3722 delta-clpP delta-lon delta-hslV, growth: N-lim chemostat, doubling time 6 h
[2] = wild type E. coli NCM3722, growth: P-lim chemostat, doubling time 12 h
[3] = E. coli NCM3722 delta-clpP, growth: N-lim chemostat, doubling time 6 h
[4] = E. coli NCM3722 delta-hslV, growth: N-lim chemostat, doubling time 6 h
[5] = E. coli NCM3722 delta-lon, growth: N-lim chemostat, doubling time 6 h
[6] = E. coli NCM3722 delta-smpB, growth: N-lim chemostat, doubling time 6 h
[7] = wild type E. coli NCM3722, growth: C-lim chemostat, doubling time 3 h
[8] = wild type E. coli NCM3722, growth: C-lim chemostat, doubling time 6 h
[9] = wild type E. coli NCM3722, growth: C-lim chemostat, doubling time 12 h
[10] = wild type E. coli NCM3722, growth: N-lim chemostat, doubling time 6 h
[11] = wild type E. coli NCM3722, growth: N-lim chemostat, doubling time 12 h
[12] = wild type E. coli NCM3722, growth: P-lim chemostat, doubling time 6 h

Sequence	total protein half-life in vivo [1] [h]	total protein half-life in vivo [2] [h]	total protein half-life in vivo [3] [h]	total protein half-life in vivo [4] [h]	total protein half-life in vivo [5] [h]	total protein half-life in vivo [6] [h]	total protein half-life in vivo [7] [h]	total protein half-life in vivo [8] [h]	total protein half-life in vivo [9] [h]	total protein half-life in vivo [10] [h]	total protein half-life in vivo [11] [h]	total protein half-life in vivo [12] [h]
MTLRTENLTVSYGTDKVLNDVSLSLPTGKITALIGPNGCGKSTLLNCFSRLLMPQSGTVFLGDNPINMLSSRQLARRLSLLPQHHLTPEGITVQELVSYGRNPWLSLWGRLSAEDNARVNVAMNQTRINHLAVRRLTELSGGQRQRAFLAMVLAQNTPVVLLDEPTTYLDINHQVDLMRLMGELRTQGKTVVAVLHDLNQASRYCDQLVVMANGHVMAQGTPEEVMTPGLLRTVFSVEAEIHPEPVSGRPMCLMR	5.53 ± 0.17	3.42	–	–	–	–	–	–	–	–	–	–
MTLSFVTRWRDELPETYTALSPTPLNNARLIWHNTELANTLSIPSSLFKNGAGVWGGEALLPGMSPLAQVYSGHQFGVWAGQLGDGRGILLGEQLLADGTTMDWHLKGAGLTPYSRMGDGRAVLRSTIRESLASEAMHYLGIPTTRALSIVTSDSPVYRETAEPGAMLMRVAPSHLRFGHFEHFYYRRESEKVRQLADFAIRHYWSHLADDEDKYRLWFSDVVARTASLIAQWQTVGFAHGVMNTDNMSLLGLTLDYGPFGFLDDYEPGFICNHSDHQGRYSFDNQPAVALWNLQRLAQTLSPFVAVDALNEALDSYQQVLLTHYGERMRQKLGFMTEQKEDNALLNELFSLMARERSDYTRTFRMLSLTEQHSAASPLRDEFIDRAAFDDWFARYRGRLQQDEVSDSERQQLMQSVNPALVLRNWLAQRAIEAAEKGDMTELHRLHEALRNPFSDRDDDYVSRPPDWGKRLEVSCSS	4.63 ± 0.32	8.293 ± 0.077	4.26 ± 0.67	3.15 ± 0.38	3.26 ± 0.13	2.8 ± 0.21	2.72 ± 0.068	4.57 ± 0.15	8.02 ± 1.4	2.971 ± 0.012	4.63 ± 0.64	4.72 ± 0.71
MTLTLNRQLLTSRQILVAFSGGLDSTVLLHQLVQWRTENPGVALRAIHVHHGLSANADAWVTHCENVCQQWQVPLVVERVQLAQEGLGIEAQARQARYQAFARTLLPGEVLVTAQHLDDQCETFLLALKRGSGPAGLSAMAEVSEFAGTRLIRPLLARTRGELVQWARQYDLRWIEDESNQDDSYDRNFLRLRVVPLLQQRWPHFAEATARSAALCAEQESLLDELLADDLAHCQSPQGTLQIVPMLAMSDARRAAIIRRWLAGQNAPMPSRDALVRIWQEVALAREDASPCLRLGAFEIRRYQSQLWWIKSVTGQSENIVPWQTWLQPLELPAGLGSVQLNAGGDIRPPRADEAVSVRFKAPGLLHIVGRNGGRKLKKIWQELGVPPWLRDTTPLLFYGETLIAAAGVFVTQEGVAEGENGVSFVWQKTLS	5.68 ± 0.23	11.6 ± 1	5.01 ± 0.08	4.74 ± 0.42	4.89 ± 0.25	4.44 ± 0.24	–	5.78 ± 0.29	11 ± 0.83	5.27 ± 0.28	8.42 ± 0.81	6.31 ± 0.15
MTLTRREFIKHSGIAAGALVVTSAAPLPAWAEEKGGKILTAGRWGAMNVEVKDGKIVSSTGALAKTIPNSLQSTAADQVHTTARIQHPMVRKSYLDNPLQPAKGRGEDTYVQVSWEQALKLIHEQHDRIRKANGPSAIFAGSYGWRSSGVLHKAQTLLQRYMNLAGGYSGHSGDYSTGAAQVIMPHVVGSVEVYEQQTSWPLILENSQVVVLWGMNPLNTLKIAWSSTDEQGLEYFHQLKKSGKPVIAIDPIRSETIEFFDDNATWIAPNMGTDVALMLGIAHTLMTQGKHDKVFLEKYTTGYPQFEEYLTGKSDNTPKSAVWAAEITGVPEAQIVKLAELMAANRTMLMAGWGIQRQQYGEQKHWMLVTLAAMLGQIGTPGGGFGFSYHYSNGGNPTRVGGVLPEMSAAIAGHASEAADDGGMTAIPVARIVDALENPGGKYQHNGKEQTYPNIKMIWWAGGGNFTHHQDTNRLIKAWQKPEMIVVSECYWTAAAKHADIVLPITTSFERNDLTMTGDYSNQHIVPMKQAVAPQFEARNDFDVFADLAELLKPGGKEIYTEGKDEMAWLKFFYDAAQKGARAQRVTMPMFNAFWQQNKLIEMRHSEKNEQYVRYGDFRADPVKNALGTPSGKIEIYSKTLEKFGYKDCPAHPTWLAPDEWKGTADEKQLQLLTAHPAHRLHSQLNYAELRKKYAIADREPITIHTEDAARFGIANGDLVRVWNKRGQILTGAVVTDGIKKGVVCVHEGAWPDLENGLCKNGSANVLTADIPSSQLANACAGNSALVYIEKYTGNAPKLTAFDQPAVQA	5.67 ± 0.3	–	–	–	5.13	–	–	4.75 ± 0.64	11.5 ± 6.1	–	8.13	–
MTLWINGDWITGQGASRVKRNPVSGEVLWQGNDADAAQVEQACRAARAAFPRWARLSFAERHAVVERFAALLESNKAELTAIIARETGKPRWEAATEVTAMINKIAISIKAYHVRTGEQRSEMPDGAASLRHRPHGVLAVFGPYNFPGHLPNGHIVPALLAGNTIIFKPSELTPWSGEAVMRLWQQAGLPPGVLNLVQGGRETGQALSALEDLDGLLFTGSANTGYQLHRQLSGQPEKILALEMGGNNPLIIDEVADIDAAVHLTIQSAFVTAGQRCTCARRLLLKSGAQGDAFLARLVAVSQRLTPGNWDDEPQPFIGGLISEQAAQQVVTAWQQLEAMGGRPLLAPRLLQAGTSLLTPGIIEMTGVAGVPDEEVFGPLLRVWRYDTFDEAIRMANNTRFGLSCGLVSPEREKFDQLLLEARAGIVNWNKPLTGAASTAPFGGIGASGNHRPSAWYAADYCAWPMASLESDSLTLPATLNPGLDFSDEVVR	5.21 ± 0.42	12.1 ± 1.7	3.93 ± 0.27	3.9 ± 0.23	4.05 ± 0.23	3.9 ± 0.34	3.01 ± 0.28	5.5 ± 0.65	10.05 ± 0.096	3.67 ± 0.23	6.26 ± 0.56	5.78 ± 0.31
